Source: doi:10.1101/2022.06.29.498105 (bioRxiv, 2022)

Biological target: the molecule itself
Test: crystal structure

B1: TRIM21 RING domain (domain or fragment)
chain: GSHMASAARLTMMWEEVTCPICLDPFVEPVSIECGHSFCQECISQVGKGGGSVCPVCRQRFLLKNLRPNRQLANMVNNLKEISQEARE
stoichiometry N: 2
